Results: patent publication US20160272995A1, “MANIPULATION OF PLASMODESMAL CONNECTIVITY TO IMPROVE PLANT YIELD AND FITNESS” (UNIVERSITY OF DELAWARE, priority 2013, published 2016)
Where “and” joins values, the source holds several entries; their conditions need not be identical. Equal entries are not always repeated.

Experiments:
[1] = system: LAX3pro:LAX3-YFP; assay: LAX3pro:LAX3-YFP signal in overlying Co cells after gravistimulation; format: in vivo, Arabidopsis thaliana
Description: (A) Seedlings were gravistimulated at 3 days post germination and the LAX3::LAX3-YFP signal was monitored under a confocal microscope from 14 hours post-gravitropic induction through 36 hours post-gravitropic induction at the root bend. Images were selected to show the earliest detection time points. […] Scale bars, 50 μm. (B) Quantification of relative occurrence of LAX3-YFP signal in Co at 22 hours post-gravitropic induction (hpg) based on the data presented in Table 3.
We monitored LAX3-YFP signal accumulation in overlying Co using the gravitropic assay.
Arabidopsis seedlings expressing LAX3::LAX3:YFP in the desired background were grown as described above for three days, followed by gravistimulation by turning the plates 90° . The cortical cell fluorescence at the root bend was monitored at different time points using a Zeiss LSM 780 confocal upright light microscope using a W Plan-Apochromat 20×/1.0 DIC M27 75 mm objective and the […] excitation line of an argon laser with 520-550 nm band pass emission filter. Images are presented as 3-D composites of 30 μm-thick z-stacks.

[2] = system: Arabidopsis thaliana; assay: Drought test: 2 weeks water withdrawal, then rewatering; format: in vivo; settings: rewatering after 2 weeks water withdrawal
Description: All plant lines were grown for 2 weeks with water prior to the 2 week water withdrawal. (a) Plants having a severe knock down of PDLP5 (pdlp5-1) and PDLP5-m5 plants bolt faster than plants overexpressing PDLP5 (OX) and wild type (WT) plants. (b) Plants overexpressing PDLP5 (OX) revive 3 days post rewatering (DPR). (c) Plants overexpressing PDLP5 (OX) fully recover and 10 days post rewatering (DPR); wild type (WT) plants are dead, and PDLP5-m5 plants continue to survive.
(a) Plants overexpressing PDLP5 (OX), wild type (WT) plants, plants having a severe knock down of PDLP5 (pdlp5-1), and three different PDLP5-m5 plants (T3-4-2, T2-6, and T2-26) which were all grown a different number of days as required to reach same rosette size before water withdrawal. Plants having the same rosette size are referred to as “same day bolting samples.” (b) Same day bolting samples of plants overexpressing PDLP5 (OX), wild type (WT) plants, plants having a severe knock down of PDLP5 (pdlp5-1), and three different PDLP5-m5 plants (T3-4-2, T2-6, and T2-26) at the end of a 2 week water withdrawal. (c) Same day bolting samples of plants overexpressing PDLP5 (OX) and two different PDLP5-m5 plants (T3-4-2 and T2-26) recover fully 3 days post rewatering.
Transgenic T1 plants were selected on basta+plates and homozygous T2 lines were identified by segregation test on T3 plants. For the drought test, homozygous lines were grown in soil for the 2 weeks with watering followed by 2 weeks of water withdrawal. Tolerance to drought stress of the PDLP5-m5 was assessed by the plant growth or death upon resuming watering.
PDLP5-m5 plants were evaluated by exposing them to drought conditions. PDLP-m5 plants were grown under normal conditions with water, water was withdrawn for 2 weeks, and rewatering was commenced. Plants having a severe knock down of PDLP5 (pdlp5-1) and PDLP5-m5 plants bolt faster than plants overexpressing PDLP5 and wild type plants (FIG. 13A). […] The early bolting of the PDLP5-m5 plants appeared to affect plant revival. Therefore, the experiment was repeated using same day bolting samples. Briefly, plants having the same rosette size were used, regardless of the number of days required to achieve that rosette size (FIG. 14A).

[3] = system: plasmodesmata (PD); settings: Arabidopsis plants; cited from earlier work
[4] = system: Arabidopsis thaliana; assay: Vegetative growth, flowering and seed yield of plants; format: in vivo; settings: 22-20° C., 16/8 hours light/darkness
Description: Wild type (WT) plants, plants overexpressing […]), and plants with a severe knock down of […] used as comparisons. (a) Whole plants at 10, 14, and 18 days post germination (dpg). Plants were grown at 22-20° C. with 50% humidity and with 16/8 hours light/darkness. (b) Leaves at 3 weeks post germination. Plants were grown at 24-22° C. with 70% humidity and with 16/8 hours light/darkness. […] Wild type (WT) plants, plants overexpressing PDLP5 (OX), and plants with a severe knock down of PDLP5 (KO) were used as comparisons. […] Seeds were germinated on plates, were transferred to soil after 1 week, and plants were grown at 22-20° C. with 16/8 hours light/darkness. […] Wild type (WT) plants and plants overexpressing […]) were used as comparisons. Plants were grown at 24-22° C. with 70% humidity and with 16/8 hours light/darkness. […] The sequence of the PCR product was confirmed followed by transformation of Top10 E. coli competent cells. […] Agrobacteria were transformed with the […]5 clone.

[5] = 22 hours post-gravitropic stimulation

B1: PDLP5OE: Wild-type A. thaliana PDLP5 protein (SEQ ID NO:4) constitutively overexpressed in plants under the 35S promoter (protein, listed as Arabidopsis thaliana)
chain: MIKTKTTSLLCFLLTAVILMNPSSSSPTDNYIYAVCSPAKFSPSSGYETNLNSLLSSFVTSTAQTRYANFTVPTGKPEPTVTVYGIYQCRGDLDPTACSTCVSSAVAQVGALCSNSYSGFLQMENCLIRYDNKSFLGVQDKTLILNKCGQPMEFNDQDALTKASDVIGSLGTGDGSYRTGGNGNVQGVAQCSGDLSTSQCQDCLSDAIGRLKSDCGMAQGGYVYLSKCYARFSVGGSHARQTPGPNFGHEGEKGNKDDNGVGKTLAIIIGIVTLIILLVVFLAFVGKCCRKLQDEKWCK
[1]; 24 hpg
  LAX3pro:LAX3-YFP cortical signal, ratio PDLP5:WT: 0.42 and 0.68
  LAX3pro:LAX3-YFP cortical signal, seedlings: 33%
[1]; 24 hpg, mean
  LAX3pro:LAX3-YFP cortical signal, ratio PDLP5:WT: 0.55
[1]; 36 hpg
  LAX3pro:LAX3-YFP cortical signal, ratio PDLP5:WT: 1
[1]; [5]
  ratio to WT of seedlings expressing LAX3pro:LAX3-YFP in Co cells: 0
  seedlings expressing LAX3pro:LAX3-YFP in overlaying Co cells: no fluorescent signals evident
[2]
  outcome upon rewatering: recovered after rewatering
[3]
  movement between cells reduced by: 70%
[4]
  rosette diameter: reduced rosette diameter
